Data on ten molecules can be found in patent publication US20180141988A1 (Pieris, published 2018).

Assay [1] concerns the target T1, Human GPC3 (2119-GP; R&D systems), biotinylated (human, UniProt P51654 25-559, biotinylated using standard NHS chemistry).
T1 construct: Bought protein; also called human Glypican-3
Kind of assay: SPR (Biacore T200), biotinylated GPC3 captured on chip, mutein in flow. Here is the method:
(§1) SPR analysis of the binding of the optimized Lcn2 muteins to human and mouse GPC3 was performed at 25° C. on a Biacore T200 instrument (GE Healthcare) using HBS-EP+ (1x; BR-1006-69; GE Healthcare) as running buffer. The Biotin CAPture Kit (GE Healthcare) was used to immobilize biotinylated GPC3 to a chip surface. Human GPC3 (2119-GP; R&D systems) and murine GPC3 (6938-GP; R&D systems) were biotinylated using standard NHS chemistry. Undiluted Biotin CAPture Reagent (streptavidin conjugated with ss-DNA oligo) was captured on a Sensor Chip CAP with the pre-immobilized complementary ss-DNA oligo. Thereafter, biotinylated human or murine GPC3 at 1 μg/ml was applied for 300 s at a flow rate of […].
(§2) Lcn2 muteins were applied in concentrations of 10 nM, 40 nM and 160 nM at a flow rate of 30 μL/min. The dilutions were injected with association times of 180 s and dissociation times of 600 s to obtain ka and kd information. Regeneration of the chip surface was achieved by injecting 6 M Guanidinium-HCl+0.25 M NaOH (120 s) with a flow rate of 10 μL/min. Injection of regeneration solutions was followed by an extra wash step with H₂O and a stabilization period of 120 s.
(§3) The data were double-referenced by subtraction of the corresponding signals measured for the control channel (loaded with Biotin CAPture reagent only) and by subtraction of buffer injections from the binding responses. Association rate constant ka and dissociation rate constant kd for the binding reaction were determined using Biacore T200 Evaluation Software V2.0 for data processing and kinetic fitting. The data were globally fit with 1:1 binding model.

Assay [2] deals with T2, murine GPC3 (6938-GP; R&D systems), biotinylated (murine, UniProt Q8CFZ4 25-558, limits assumed, biotinylated using standard NHS chemistry).
T2 construct: Bought protein; also called mouse GPC3
Described as above. Here is the method:
as §1, §2, §3

The target in assay [3] is T3, cynomolgus GPC3 on stably transfected SK-HEP-1 cells (cynomolgus, UniProt A0A2K5VK50 24-553).
T3 construct: whole, on cells; also called SK-HEP-1::cyno GPC3; SK-HEP-1::cynomolugus GPC3
Kind of assay: MSD-based (ECL) cell binding assay on transfected SK-HEP-1 cells. On the procedure:
(§4) Binding of optimized lipocalin muteins of SEQ ID NOs: 5-16 to human, cynomolgus and mouse GPC3 compared to SEQ ID NOs: 3 and 4 was tested on SK-HEP-1 cells using an ECL format (FIG. 1). In this experiment, dilution series of lipocalin muteins were incubated on MSD plates coated with human, cynomolgus or mouse GPC3 overexpressing SK-HEP-1 cells.
(§5) SEQ ID NOs: 3, 4, 5, 7, 8, 9, 10, 12, 13, 14, 15 and 16 (using 1000 nM as starting concentration) were serially diluted at a 1:3 ratio down to the picomolar range in PBS/Casein. 20 μl of the dilution series were transferred to the SK-HEP-1-coated plates for 1 hour at room temperature.
(§6) To allow for detection and quantification of bound GPC3 specific lipocalin muteins, the residual supernatants were discarded and 20 μl of a mixture of rabbit anti scaffold antibody (2 μg/ml) and Sulfotag labelled anti rabbit antibody (5 μg/ml) prepared in PBS/casein was added to the wells and incubated for 1 h at RT. After washing, 35 μl surfactant-free reading buffer was added to each well and the ECL intensity of every well was read using a MSD reader.

For assay [4], the target named is T4, human GPC3 on stably transfected SK-HEP-1 cells (human, UniProt P51654 25-554).
T4 construct: whole, on cells; also called SK-HEP-1::human GPC3
The description is as above. On the procedure: as §4, §5, §6

Assay [5] has as its target T5, mouse GPC3 on stably transfected SK-HEP-1 cells (mouse, UniProt Q8CFZ4 25-553).
T5 construct: whole, on cells; also called SK-HEP-1::mouse GPC3; murine GPC3
Described as above. Here is the method:
as §4, §5, §6

T2 sequence (Q8CFZ4 25-558 limits assumed): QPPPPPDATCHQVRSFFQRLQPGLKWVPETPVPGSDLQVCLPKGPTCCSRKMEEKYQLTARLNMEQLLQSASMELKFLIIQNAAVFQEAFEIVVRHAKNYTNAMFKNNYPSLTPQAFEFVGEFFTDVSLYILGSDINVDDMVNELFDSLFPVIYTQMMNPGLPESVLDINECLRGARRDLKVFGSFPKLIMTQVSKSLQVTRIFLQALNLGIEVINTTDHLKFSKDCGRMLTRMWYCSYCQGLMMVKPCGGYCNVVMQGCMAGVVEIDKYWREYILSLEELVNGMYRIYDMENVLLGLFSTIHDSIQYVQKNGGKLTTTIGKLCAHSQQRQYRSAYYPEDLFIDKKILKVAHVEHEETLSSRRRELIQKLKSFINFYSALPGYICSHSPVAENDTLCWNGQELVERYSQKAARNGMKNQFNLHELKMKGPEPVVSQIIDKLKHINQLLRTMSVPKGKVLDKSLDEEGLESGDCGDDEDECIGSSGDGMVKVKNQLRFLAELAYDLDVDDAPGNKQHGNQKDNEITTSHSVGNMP
T1 sequence (P51654 25-559 limits assumed): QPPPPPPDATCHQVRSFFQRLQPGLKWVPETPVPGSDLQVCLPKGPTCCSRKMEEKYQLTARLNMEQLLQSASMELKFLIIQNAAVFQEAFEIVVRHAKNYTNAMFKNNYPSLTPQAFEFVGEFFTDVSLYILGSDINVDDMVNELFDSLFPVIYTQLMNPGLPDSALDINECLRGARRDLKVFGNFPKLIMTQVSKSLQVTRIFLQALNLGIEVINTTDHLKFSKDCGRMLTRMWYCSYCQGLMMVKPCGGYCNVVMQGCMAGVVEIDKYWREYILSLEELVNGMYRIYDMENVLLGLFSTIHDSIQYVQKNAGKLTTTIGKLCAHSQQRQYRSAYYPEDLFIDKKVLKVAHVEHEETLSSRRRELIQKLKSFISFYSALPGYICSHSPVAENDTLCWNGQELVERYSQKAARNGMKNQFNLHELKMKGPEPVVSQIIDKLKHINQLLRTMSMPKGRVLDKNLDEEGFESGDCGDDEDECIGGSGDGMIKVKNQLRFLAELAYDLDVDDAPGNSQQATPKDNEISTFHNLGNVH
T4 sequence (P51654 25-554 limits assumed): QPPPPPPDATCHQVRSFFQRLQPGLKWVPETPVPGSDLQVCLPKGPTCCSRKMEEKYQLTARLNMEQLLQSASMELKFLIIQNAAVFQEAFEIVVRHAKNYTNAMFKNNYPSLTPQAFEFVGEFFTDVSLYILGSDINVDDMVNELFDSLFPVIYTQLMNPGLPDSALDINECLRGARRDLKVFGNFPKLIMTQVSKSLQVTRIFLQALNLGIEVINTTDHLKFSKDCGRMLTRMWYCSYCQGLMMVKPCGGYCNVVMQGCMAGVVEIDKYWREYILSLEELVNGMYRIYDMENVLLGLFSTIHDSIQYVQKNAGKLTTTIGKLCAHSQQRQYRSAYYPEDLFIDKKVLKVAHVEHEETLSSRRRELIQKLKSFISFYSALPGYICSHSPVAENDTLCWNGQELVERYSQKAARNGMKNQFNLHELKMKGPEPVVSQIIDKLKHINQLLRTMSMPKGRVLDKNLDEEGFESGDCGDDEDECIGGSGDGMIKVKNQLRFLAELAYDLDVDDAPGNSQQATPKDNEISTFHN
T5 sequence (Q8CFZ4 25-553 limits assumed): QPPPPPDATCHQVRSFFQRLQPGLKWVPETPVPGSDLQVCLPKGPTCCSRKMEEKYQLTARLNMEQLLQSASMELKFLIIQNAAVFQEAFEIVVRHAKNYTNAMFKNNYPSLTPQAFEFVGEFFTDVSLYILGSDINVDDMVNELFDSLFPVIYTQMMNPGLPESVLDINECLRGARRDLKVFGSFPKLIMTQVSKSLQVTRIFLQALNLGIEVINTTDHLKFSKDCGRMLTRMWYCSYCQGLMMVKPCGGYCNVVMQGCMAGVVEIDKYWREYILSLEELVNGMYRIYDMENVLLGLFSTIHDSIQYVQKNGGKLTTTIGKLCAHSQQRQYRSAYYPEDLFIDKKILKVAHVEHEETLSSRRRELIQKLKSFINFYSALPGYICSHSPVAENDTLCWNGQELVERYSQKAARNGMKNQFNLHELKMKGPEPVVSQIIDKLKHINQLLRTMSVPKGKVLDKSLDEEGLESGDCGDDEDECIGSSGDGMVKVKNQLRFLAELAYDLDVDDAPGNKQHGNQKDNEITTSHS

B1: lipocalin mutein of SEQ ID NO: 5 (designed binder)
chain: QDSTSDLIPAPPLSKVPLQQNFQDNQFQGKWYVVGVAGNALLREDKDPLKMRATIYELKEDKSYDVTVVSFWRKKCHYKIGTFVPGSQPGEFTLGDIKSGPGQTSNLVRVVSTNYNQHAMVFFKEVRQNREWFAITLYGRTKELTSELKENFIRFSKSLGLPENHIVFPVPIDQCIDGSAWSHPQFEK
notes: hNGAL (Lcn2) mutein; also called optimized GPC3 specific lipocalin mutein
On to B1, for which the dissociation constant Kd is 0.119 nM in assay [1] and 0.207 nM in assay [2]. Also, the off-rate (koff) in assay [1] came to 0.0002 s⁻¹; in assay [2], 0.00026 s⁻¹. Moreover, the results for the kon in assay [1] and in assay [2] were 1.6e+06 M⁻¹ s⁻¹ and 1.3e+06 M⁻¹ s⁻¹, respectively. The half-maximal effective concentration (EC50) in assay [3] amounted to 33.9 nM; in assay [4], 24.1 nM; in assay [5] it was 25.6 nM.

B2: lipocalin mutein of SEQ ID NO: 6 (designed binder)
chain: QDSTSDLIPAPPLSKVPLQQNFQDNQFQGKWYVVGVAGNVRLREDKDPPKMRATIYELKEDKSYDVTGVSFRGKKCHYKIGTFVPGSQPGEFTLGDIKSGPGETSNLVRVVSTNYNQHAMVFFKEVRQNREWFFITLYGRTKELTSELKENFIRFSKSLGLPENHIVFPVPIDQCIDGSAWSHPQFEK
notes: as for B1
As to B2, in assay [1], the dissociation constant Kd was determined as 0.019 nM, the koff is 3.3e-05 s⁻¹ and the kon was determined as 1.8e+06 M⁻¹ s⁻¹. In assay [2], the dissociation constant (Kd) turned out to be 0.019 nM, the koff was 4.2e-05 s⁻¹ and the kon is 2.2e+06 M⁻¹ s⁻¹.

B3: lipocalin mutein of SEQ ID NO: 3 (designed binder)
chain: QDSTSDLIPAPPLSKVPLQQNFQDNQFHGKWYVVGVAGNAMLREDKDPLKMRATIYELKEDKSYNVTGVSFWRKKCHYKIGTFVPGSQPGEFTLGDIKSGPGQTSNLVRVVSTNYNQHAMVFFKEVRQNREWFAITLYGRTKELTSELKENFIRFSKSLGLPENHIVFPVPIDQCIDGSAWSHPQFEK
notes: hNGAL (Lcn2) mutein; also called non-optimized GPC3-specific Lcn2 mutein; mother clone
Turning to B3, the Kd in assay [1] came out at 0.387 nM; in assay [2] it was 0.674 nM. Also, the koff in assay [1] came out at 0.00022 s⁻¹; in assay [2], 0.0003 s⁻¹. Besides, the results for the on-rate (kon) in assay [1] and in assay [2] were 560000 M⁻¹ s⁻¹ and 450000 M⁻¹ s⁻¹, respectively. The values for the EC50 in assay [3], in assay [4] and in assay [5] were 29.9 nM, 24.3 nM and 29.8 nM, respectively.

B4: lipocalin mutein of SEQ ID NO: 7 (designed binder)
chain: QDSTSDLIPAPPLSKVPLQQNFQDNQFQGKWYVVGVAGNGMLREDKDPLKMRATIYELKEDKSYDVTSVAFRNKKCHYKIGTFVPGSQPGEFTLGQIKSGPGETSNLVRVVSTNYNQHAMVFFKEVRQNREWFFITLYGRTKELTSELKENFIRFSKSLGLPENHIVFPVPIDQCIDGSAWSHPQFEK
notes: as for B1
On to B4, for which the dissociation constant (Kd) was 0.097 nM in assay [1] and 0.145 nM in assay [2]. The figures for the koff in assay [1] and in assay [2] were 0.00013 s⁻¹ and 0.00015 s⁻¹, respectively. The kon in assay [1] turned out to be 1.3e+06 M⁻¹ s⁻¹; in assay [2], 1e+06 M⁻¹ s⁻¹. The EC50 in assay [3] amounted to 2.8 nM; in assay [4], 2.5 nM; in assay [5] it was 4.8 nM.

B5: lipocalin mutein of SEQ ID NO: 8 (designed binder)
chain: QDSTSDLIPAPPLSKVPLQQNFQDNQFQGKWYVVGRAGNVGLREDKDPPKMWATIYELKEDKSYDVTNVRFARKKCLYSIGTFVPGSQPGEFTLGQIKSEPGNTANLVRVVSTNYNQHAMVFFKEVYQNREIFFIILYGRTKELTSELKENFIRFSKSLGLPENHIVFPVPIDQCIDGSAWSHPQFEK
notes: as for B1
For B5, the dissociation constant Kd amounted to 0.068 nM in assay [1] and 0.096 nM in assay [2]. Besides, the off-rate (koff) in assay [1] stood at 0.00013 s⁻¹; in assay [2] it was 0.00018 s⁻¹. The kon in assay [1] came out at 2e+06 M⁻¹ s⁻¹; in assay [2], 1.9e+06 M⁻¹ s⁻¹. Besides, the EC50 in assay [3] came to 2.3 nM; in assay [4], 1.4 nM; in assay [5] it was 5.3 nM.

B6: lipocalin mutein of SEQ ID NO: 4 (designed binder)
chain: QDSTSDLIPAPPLSKVPLQQNFQDNQFHGKWYVVGRAGNVALREDKDPPKMRATIYELKEDKSYNVTNVRFAMKKCMYSIGTFVPGSQPGEFTLGQIKSEPGNTSNLVRVVSTNYNQHAMVFFKEVYQNREIFFITLYGRTKELTSELKENFIRFSKSLGLPENHIVFPVPIDQCIDGSAWSHPQFEK
notes: as for B3
Regarding B6, the equilibrium dissociation constant (Kd) in assay [1] was determined as 0.877 nM; in assay [2] it was 1.09 nM. In addition, the off-rate constant (koff) in assay [1] turned out to be 0.0022 s⁻¹; in assay [2] it was 0.0028 s⁻¹. Also, the on-rate (kon) in assay [1] is 2.5e+06 M⁻¹ s⁻¹; in assay [2], 2.6e+06 M⁻¹ s⁻¹. For the same molecule, the EC50 in assay [3] is 5.7 nM; in assay [4] it was 10.2 nM; in assay [5] it was 7.1 nM.

B7: lipocalin mutein of SEQ ID NO: 12 (designed binder)
chain: QDSTSDLIPAPPLSKVPLQQNFQDNQFQGKWYVVGRAGNVALREDKDPPKMRATIYELKEDKSYDVTNVVFAGKKCKYSIGTFVPGSQPGEFTLGRIKSPPGNTANLVRVVSTNYNQHAMVFFKEVYQNREIFFIILYGRTKELTSELKENFIRFSKSLGLPENHIVFPVPIDQCIDGSAWSHPQFEK
notes: as for B1
On to B7, for which the dissociation constant Kd in assay [1] stood at 0.037 nM; in assay [2], 0.058 nM. Besides, the koff in assay [1] was found to be 0.00024 s⁻¹; in assay [2] it was 0.0003 s⁻¹. Moreover, the kon is 6.5e+06 M⁻¹ s⁻¹ in assay [1] and 5.1e+06 M⁻¹ s⁻¹ in assay [2]. In addition, the EC50 came out at 1.7 nM in assay [3], 2 nM in assay [4] and 5.3 nM in assay [5].

B8: lipocalin mutein of SEQ ID NO: 10 (designed binder)
chain: QDSTSDLIPAPPLSKVPLQQNFQDNQFQGKWYVVGRAGNGALREDKDPPKMWATIYELKEDKSYDVTNVRFARKKCVYSIGTFVPGSQPGEFTLGPIKSEPGNTASLVRVVSTNYNQHAMVFFKEVYQNREIFFIILYGRTKELTSELKENFIRFSKSLGLPENHIVFPVPIDQCIDGSAWSHPQFEK
notes: as for B1
For the molecule B8, the dissociation constant (Kd) in assay [1] amounted to 0.063 nM; in assay [2] it was 0.093 nM. For the same molecule, the koff in assay [1] stood at 0.00012 s⁻¹; in assay [2], 0.00017 s⁻¹. The kon in assay [1] and in assay [2] was 1.8e+06 M⁻¹ s⁻¹ each time. In addition, the EC50 was determined as 0.8 nM in assay [3], 0.8 nM in assay [4] and 3.8 nM in assay [5].

B9: lipocalin mutein of SEQ ID NO: 9 (designed binder)
chain: QDSTSDLIPAPPLSKVPLQQNFQDNQFQGKWYVVGRAGNVGLREDKDPPKMWATIYELKEDKSYDVTNVRFARKKCTYSIGTFVPGSQPGEFTLGQIKSEPGGTANLVRVVSTNYNQHAMVFFKEVYQNREIFFIILYGRTKELTSELKENFIRFSKSLGLPENHIVFPVPIDQCIDGSAWSHPQFEK
notes: as for B1
Take B9: the results for the Kd in assay [1] and in assay [2] were 0.054 nM and 0.075 nM, respectively. In addition, the koff in assay [1] was 9.8e-05 s⁻¹; in assay [2], 0.00015 s⁻¹. Besides, the kon was 1.8e+06 M⁻¹ s⁻¹ in assay [1] and 2e+06 M⁻¹ s⁻¹ in assay [2]. Moreover, the results for the EC50 in assay [3], in assay [4] and in assay [5] were 1.9 nM, 1.1 nM and 4.1 nM, respectively.

B10: lipocalin mutein of SEQ ID NO: 11 (designed binder)
chain: QDSTSDLIPAPPLSKVPLQQNFQDNQFQGKWYVVGRAGNVALREDKDPPKMRATIYELKEDKSYDVTAVRFARKKCLYSIGTFVPGSQPGEFTLGRIKSEPGYTANLVRVVSTNYNQHAMVFFKEVYQNREIFFIILYGRTKELTSELKENFIRFSKSLGLPENHIVFPVPIDQCIDGSAWSHPQFEK
notes: as for B1
In assay [1], B10 gave a Kd of 0.027 nM, a koff of 4.6e-05 s⁻¹ and an association rate constant (kon) of 1.7e+06 M⁻¹ s⁻¹. For the same molecule, in assay [2], binding was put at a Kd of 0.011 nM, the dissociation rate constant (koff) amounted to 3.2e-05 s⁻¹ and the kon was determined as 2.9e+06 M⁻¹ s⁻¹.
